Tests used:
[1] = biological target: T1, human CD3ε on primary human T cells (human, UniProt P07766 23-207); assay: FACS, primary human T cells
T1 construct: whole, on cells; Part of the TCR-CD3 complex on the cells; also called cell-surface CD3ε; CD3E

[2] = biological target: T2, human PSMA (prostate specific membrane antigen), full length (human, UniProt Q04609 1-750); assay: flow cytometry, bispecific antibody titrated on LNCaP cells (human PSMA), anti-human kappa light chain PE
T2 construct: On LNCaP or C4-2B cells (endogenous) or transduced HEK293F cells; also called FOLH1_HUMAN; hPSMA
Description: (§1) PSMA×CD3 bispecific antibodies were tested for binding to PSMA positive cell lines LNCAP, human PSMA-HEK, Chimpanzee-PSMA-HEK and Cynomolgous monkey PSMA-HEK. To assess the binding capabilities of the PSMA bispecific antibodies, the cell-binding assay was utilized (described previously). Briefly, PSMA expressing tumor cells are bound by bispecific antibodies at known concentrations and the bound antibody is detected by an anti-human kappa light chain PE conjugated detection reagent (Invitrogen). The Mean Fluorescents Intensity (MFI) is the measure of bound bispecific antibody. The MFI is converted to a relative EC₅₀. EC₅₀ is a commonly used dose-response curve, where the half maximal effective concentration or the EC₅₀ point is defined as the inflection point of the curve. EC₅₀ s were determined by measuring cell bound bispecific and known concentrations. […] The dose response curves were then diluted down to that of background or no bispecific binding. The inflection point of this curve reflects the EC₅₀ point. The calculated EC₅₀ is determined by taking the ug/ml amount of bispecific antibody at the EC₅₀ point and converting it to a molarity value based on the MW of the bispecific antibody. Bispecific antibodies were normalized for protein concentration and then incubated with the same number of cells expressing either human or cyno PSMA. […]

[3] = biological target: T2, human PSMA (prostate specific membrane …); assay: flow cytometry, bispecific antibody titrated on human PSMA HEK cells, anti-human kappa light chain PE
Description: as §1

[4] = biological target: T2, human PSMA (prostate specific membrane …); assay: flow cytometry, bispecific antibody titrated on LNCaP cells (human PSMA), anti-human kappa light chain PE; remark: listed apart in the source
Description: PSMA×CD3 bispecific antibodies were tested for binding to PSMA positive cell lines LNCAP, human PSMA-HEK, Chimpanzee-PSMA-HEK and Cynomolgous monkey PSMA-HEK. To assess the binding capabilities of the PSMA bispecific antibodies, the cell-binding assay was utilized (described previously). Briefly, PSMA expressing tumor cells are bound by bispecific antibodies at known concentrations and the bound antibody is detected by an anti-human kappa light chain PE conjugated detection reagent (Invitrogen). The Mean Fluorescents Intensity (MFI) is the measure of bound bispecific antibody. The MFI is converted to a relative EC₅₀. EC₅₀ is a commonly used dose-response curve, where the half maximal effective concentration or the EC₅₀ point is defined as the inflection point of the curve. EC₅₀ s were determined by measuring cell bound bispecific and known concentrations. […] The dose response curves were then diluted down to that of background or no bispecific binding. The inflection point of this curve reflects the EC₅₀ point. The calculated EC₅₀ is determined by taking the ug/ml amount of bispecific antibody at the EC₅₀ point and converting it to a molarity value based on the MW of the bispecific antibody. Bispecific antibodies were normalized for protein concentration and then incubated with the same number of cells expressing either human or cyno PSMA. The MFI at each concentration was collected by flow cytometry and plotted as a function of concentration. Data was transformed via log 10 and then plotted. Nonlinear regression of binding curves was done to determine EC₅₀ s. These relative values were used for ranking PSMA binding to target cells.

[5] = biological target: T3, Cynomolgous monkey PSMA, full length (Macaca fascicularis, UniProt Q04609 1-750 (human entry)); assay: flow cytometry, mammalian Fab supernatant titrated on cyno PSMA (PSMG5) HEK cells, anti-human kappa-RPE
T3 construct: On transfected HEK293F cells; also called cyno PSMA; EHH56646.1
T3 chain: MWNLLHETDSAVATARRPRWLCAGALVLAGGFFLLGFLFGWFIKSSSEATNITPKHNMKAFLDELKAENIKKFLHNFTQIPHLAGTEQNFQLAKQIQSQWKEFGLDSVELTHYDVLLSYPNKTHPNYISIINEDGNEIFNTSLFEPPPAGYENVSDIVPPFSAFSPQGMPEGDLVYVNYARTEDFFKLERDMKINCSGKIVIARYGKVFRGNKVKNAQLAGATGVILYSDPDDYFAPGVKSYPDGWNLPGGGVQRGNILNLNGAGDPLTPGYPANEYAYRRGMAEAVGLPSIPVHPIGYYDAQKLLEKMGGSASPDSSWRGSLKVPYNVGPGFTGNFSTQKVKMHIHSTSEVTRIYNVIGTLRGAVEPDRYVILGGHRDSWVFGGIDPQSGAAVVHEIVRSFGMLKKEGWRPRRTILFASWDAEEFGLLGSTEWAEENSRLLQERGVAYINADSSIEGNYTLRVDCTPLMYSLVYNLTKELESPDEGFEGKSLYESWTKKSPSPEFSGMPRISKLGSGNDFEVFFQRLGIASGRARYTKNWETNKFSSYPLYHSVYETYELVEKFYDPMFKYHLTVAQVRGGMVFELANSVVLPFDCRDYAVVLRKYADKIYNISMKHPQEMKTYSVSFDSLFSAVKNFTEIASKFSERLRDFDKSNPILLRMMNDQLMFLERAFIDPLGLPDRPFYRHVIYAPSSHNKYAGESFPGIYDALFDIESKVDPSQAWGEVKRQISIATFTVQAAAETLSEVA
Description: Plates were read on a BD FACS Array flow cytometer. FACS data was analyzed in FlowJo software by live gating the healthy population of cells using forward scatter and side scatter, and then analyzing the cells within this gate for PE staining. Mean fluorescence intensity (MFI) was calculated and exported into Microsoft Excel. […] Fabs were sequenced and moved forward for cloning into mammalian expression vector for rescreening. True positives were selected from the binding of mammalian cell expressed Fab supernatants to PSMA-expressing cell lines.
Binding profiles among hits were compared across cell lines expressing different species of PSMA.

[6] = biological target: T4, cynomolgus CD3ε on primary cynomolgus CD4+ T cells (cynomolgus monkey, UniProt Q95LI5 22-198); assay: FACS, primary cynomolgus CD4+ T cells
T4 construct: whole, on cells
T4 sequence (Q95LI5 22-198): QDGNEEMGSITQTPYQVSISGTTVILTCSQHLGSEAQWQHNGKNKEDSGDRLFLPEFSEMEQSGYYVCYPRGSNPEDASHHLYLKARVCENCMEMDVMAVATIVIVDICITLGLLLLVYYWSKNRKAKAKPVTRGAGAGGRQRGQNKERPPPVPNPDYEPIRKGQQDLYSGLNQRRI

T1 sequence (P07766 23-207): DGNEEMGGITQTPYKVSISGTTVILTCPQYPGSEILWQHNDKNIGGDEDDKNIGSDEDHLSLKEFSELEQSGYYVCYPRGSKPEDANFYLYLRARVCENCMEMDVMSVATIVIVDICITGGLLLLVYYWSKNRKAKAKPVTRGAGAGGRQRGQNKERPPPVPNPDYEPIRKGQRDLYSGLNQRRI

B1: CD3B144 (antibody, V domains shown)
VH: EVQLVESGGGLVQPGGSLRLSCAASGFTFNTYAMNWVRQAPGKGLEWVARIRSKYNNYATYYAASVKGRFTISRDDSKNSLYLQMNSLKTEDTAVYYCARHGNFGNSYVSWFAYWGQGTLVTVSS
VL: QSVLTQPPSVSAAPGQKVTISCRSSTGAVTTSNYANWVQQLPGTAPKGLIGGTNKRAPGIPDRFSGSKSGTSATLGITGLQTGDEADYYCALWYSNLWVFGGGTKLTVL
notes: also called CD3H141/CD3L64
- binding result [1]: no binding (tested: 10 µg/ml (normalised))

B2: CD3B152 (antibody, V domains shown)
VH: EVQLLESGGGLVQPGGSLRLSCAASGFTFNTYAMNWVRQAPGKGLEWVARIRSKYNNYATYYADSVKGRFTISRDNSKNTLYLQMNSLRAEDTAVYYCVKHGNFGNSYVSWFAYWGQGTLVTVSS
VL: QSVLTQPPSVSAAPGQKVTISCRSSTGAVTTSNYANWVQQLPGTAPKGLIGGTNKRAPGIPDRFSGSKSGTSATLGITGLQTGDEADYYCALWYSNLWVFGGGTKLTVL
notes: also called CD3H143/CD3L64
- binding result [1]: no binding (tested: 10 µg/ml (normalised))

B3: PS3B7 (M59) (bispecific antibody, human IgG4 S228P, kappa, lambda, F234A L235A)
heavy chain, PSMA arm (PSMB87, Fab PSMB58): not shown
light chain, PSMA arm (PSMB87, Fab PSMB58): not shown
heavy chain, CD3 arm (CD3B217): EVQLLESGGGLVQPGGSLRLSCAASGFTFNTYAMNWVRQAPGKGLEWVARIRSKYNNYATYYADSVKGRFTISRDNSKNTLYLQMNSLRAEDTAVYYCVKHGNFGNSYVSWFAYWGQGTLVTVSSASTKGPSVFPLAPCSRSTSESTAALGCLVKDYFPEPVTVSWNSGALTSGVHTFPAVLQSSGLYSLSSVVTVPSSSLGTKTYTCNVDHKPSNTKVDKRVESKYGPPCPPCPAPEAAGGPSVFLFPPKPKDTLMISRTPEVTCVVVDVSQEDPEVQFNWYVDGVEVHNAKTKPREEQFNSTYRVVSVLTVLHQDWLNGKEYKCKVSNKGLPSSIEKTISKAKGQPREPQVYTLPPSQEEMTKNQVSLTCLVKGFYPSDIAVEWESNGQPENNYKTTPPVLDSDGSFLLYSKLTVDKSRWQEGNVFSCSVMHEALHNHYTQKSLSLSLGK
light chain, CD3 arm (CD3B217): QAVVTQEPSLTVSPGGTVTLTCRSSTGAVTTSNYANWVQQKPGQAPRGLIGGTNKRAPGTPARFSGSLLGGKAALTLSGAQPEDEAEYYCALWYSNLWVFGGGTKLTVLGQPKAAPSVTLFPPSSEELQANKATLVCLISDFYPGAVTVAWKADSSPVKAGVETTTPSKQSNNKYAASSYLSLTPEQWKSHRSYSCQVTHEGSTVEKTVAPTECS
notes: also called PSMB87 x CD3B217
- EC50 (read off the curve) [2]: ~1 µg/mL
- EC50 (read off the curve) [3]: ~1 µg/mL
- EC50 (read off the curve) [4]: ~1 µg/mL

B4: PSMB49 (Fab, V domains shown)
VH: QVQLVQSGAEVKKPGSSVKVSCKASGGTFSSYAISWVRQAPGQGLEWMGGIIPIFGTANYAQKFQGRVTITADESTSTAYMELSSLRSEDTAVYYCARASRVWHASYGYLDYWGQGTLVTVSS
VL: EIVLTQSPATLSLSPGERATLSCRASQSVSKWLAWYQQKPGQAPRLLIYDASNRATGIPARFSGSGSGTDFTLTISSLEPEDFAVYYCQQRFTAPWTFGQGTKVEIK
notes: Fab; also called PSMM50; Fab of mAb PSMB121
- EC50 (read off the curve) [5]: ~0.2 µg/mL

B5: G11 (antibody, human IgG1, kappa, V domains shown)
VH: EVQLLESGGGLVQPGGSLRLSCAASGFTFSSYGMSWVRQAPGKGLEWVSGINGGGGSKYYADSVKGRFTISRDNSKNTLYLQMNSLRAEDTAVYYCAKTSAQRFDYWGQGTLVTVSS
VL: DIQMTQSPSSLSASVGDRVTITCRASQSISSYLNWYQQKPGAPKLLIYAASSLQSGVPSRFSGSGSGTDFTLTISSLQPEDFATYYCQQSYSLPLTFGQGTKVEIKR
notes: In-house phage-derived anti-CD3 control; also called GI
- binding result [6]: no binding
